Each block holds one binder with its values, some of them ahead of it. Numbered stars: 1 amine (or outer) side, 2 acyl side, 3 side chain; on linkers, the order of the positions; unused ones are H or OH. Bridge positions count the residues as written; N and C are the ends. Side chains are listed from the residue outwards. Ends that are not written are not given here. * marks the point of attachment. C20 diacid = O=C(O)CCCCCCCCCCCCCCCCCCC(=O)*; γGlu = O=C(O)[C@H](CCC(=O)[*:2])N[*:1]
What was measured:
[1] = target: T1, human calcitonin receptor (human, UniProt P30988 25-474); experiment: cell-based or functional assay
T1 sequence (looked up): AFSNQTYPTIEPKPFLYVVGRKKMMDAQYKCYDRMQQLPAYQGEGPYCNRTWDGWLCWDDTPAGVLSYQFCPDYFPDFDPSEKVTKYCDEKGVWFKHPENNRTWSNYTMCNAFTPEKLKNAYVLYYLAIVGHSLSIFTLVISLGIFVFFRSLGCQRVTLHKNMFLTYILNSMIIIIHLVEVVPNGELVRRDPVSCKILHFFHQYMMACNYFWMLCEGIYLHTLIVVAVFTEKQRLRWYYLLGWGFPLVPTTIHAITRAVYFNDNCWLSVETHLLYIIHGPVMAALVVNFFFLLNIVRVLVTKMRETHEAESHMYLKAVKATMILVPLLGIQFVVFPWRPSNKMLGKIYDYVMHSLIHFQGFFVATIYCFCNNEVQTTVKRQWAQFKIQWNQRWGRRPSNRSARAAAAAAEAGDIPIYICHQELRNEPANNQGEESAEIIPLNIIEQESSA

[2] = target: T2, human amylin receptor (amylin 3(a) receptor: human calcitonin receptor plus RAMP-3) (human, UniProt P30988 25-474; O60896 24-148, limits assumed); experiment: cell-based or functional assay
T2 sequence (looked up) 1: T1 sequence (looked up)
T2 sequence (looked up) 2: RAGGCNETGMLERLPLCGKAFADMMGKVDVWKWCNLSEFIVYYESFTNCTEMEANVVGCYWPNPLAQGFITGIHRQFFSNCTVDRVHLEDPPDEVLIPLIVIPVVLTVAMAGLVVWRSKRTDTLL

B1: N^ε1-[(4S)-4-carboxy-4-(19-carboxynonadecanoylamino)butanoyl]-[Arg17,Pro21,Pro27,Glu35]-h-amylin (peptide)
peptide: K([γGlu-C20 diacid])CNTATCATQRLANFLRHSSPNFGAIPSSTNVGSETY-NH2
modifications: disulfide 2-7; N-terminus assumed
SMILES: CC[C@H](C)[C@H](NC(=O)[C@H](C)NC(=O)CNC(=O)[C@H](Cc1ccccc1)NC(=O)[C@H](CC(N)=O)NC(=O)[C@@H]1CCCN1C(=O)[C@H](CO)NC(=O)[C@H](CO)NC(=O)[C@H](Cc1c[nH]cn1)NC(=O)[C@H](CCCNC(=N)N)NC(=O)[C@H](CC(C)C)NC(=O)[C@H](Cc1ccccc1)NC(=O)[C@H](CC(N)=O)NC(=O)[C@H](C)NC(=O)[C@H](CC(C)C)NC(=O)[C@H](CCCNC(=N)N)NC(=O)[C@H](CCC(N)=O)NC(=O)[C@@H](NC(=O)[C@H](C)NC(=O)[C@@H]1CSSC[C@H](NC(=O)[C@@H](N)CCCCNC(=O)CC[C@H](NC(=O)CCCCCCCCCCCCCCCCCCC(=O)O)C(=O)O)C(=O)N[C@@H](CC(N)=O)C(=O)N[C@@H]([C@@H](C)O)C(=O)N[C@@H](C)C(=O)N[C@@H]([C@@H](C)O)C(=O)N1)[C@@H](C)O)C(=O)N1CCC[C@H]1C(=O)N[C@@H](CO)C(=O)N[C@@H](CO)C(=O)N[C@H](C(=O)N[C@@H](CC(N)=O)C(=O)N[C@H](C(=O)NCC(=O)N[C@@H](CO)C(=O)N[C@@H](CCC(=O)O)C(=O)N[C@H](C(=O)N[C@@H](Cc1ccc(O)cc1)C(N)=O)[C@@H](C)O)C(C)C)[C@@H](C)O
notes: also called compound 27
- Ratio hCT/hAmylin funct. (hCTR EC50 against hAmylin-R EC50) [1]: 22.6
- hCTR funct. EC50 [1]: 3 nM
- hAmylin-R funct. EC50 [2]: 0.133 nM

B3: N^ε1-[(4S)-4-carboxy-4-(19-carboxynonadecanoylamino)butanoyl]-[Arg17,Pro21,Pro27,Lys35]-h-amylin (peptide)
peptide: K([γGlu-C20 diacid])CNTATCATQRLANFLRHSSPNFGAIPSSTNVGSKTY-NH2
modifications: disulfide 2-7; N-terminus assumed
SMILES: CC[C@H](C)[C@H](NC(=O)[C@H](C)NC(=O)CNC(=O)[C@H](Cc1ccccc1)NC(=O)[C@H](CC(N)=O)NC(=O)[C@@H]1CCCN1C(=O)[C@H](CO)NC(=O)[C@H](CO)NC(=O)[C@H](Cc1c[nH]cn1)NC(=O)[C@H](CCCNC(=N)N)NC(=O)[C@H](CC(C)C)NC(=O)[C@H](Cc1ccccc1)NC(=O)[C@H](CC(N)=O)NC(=O)[C@H](C)NC(=O)[C@H](CC(C)C)NC(=O)[C@H](CCCNC(=N)N)NC(=O)[C@H](CCC(N)=O)NC(=O)[C@@H](NC(=O)[C@H](C)NC(=O)[C@@H]1CSSC[C@H](NC(=O)[C@@H](N)CCCCNC(=O)CC[C@H](NC(=O)CCCCCCCCCCCCCCCCCCC(=O)O)C(=O)O)C(=O)N[C@@H](CC(N)=O)C(=O)N[C@@H]([C@@H](C)O)C(=O)N[C@@H](C)C(=O)N[C@@H]([C@@H](C)O)C(=O)N1)[C@@H](C)O)C(=O)N1CCC[C@H]1C(=O)N[C@@H](CO)C(=O)N[C@@H](CO)C(=O)N[C@H](C(=O)N[C@@H](CC(N)=O)C(=O)N[C@H](C(=O)NCC(=O)N[C@@H](CO)C(=O)N[C@@H](CCCCN)C(=O)N[C@H](C(=O)N[C@@H](Cc1ccc(O)cc1)C(N)=O)[C@@H](C)O)C(C)C)[C@@H](C)O
notes: also called compound 35
- Ratio hCT/hAmylin funct. (hCTR EC50 against hAmylin-R EC50) [1]: 15
- hCTR funct. EC50 [1]: 5.46 nM
- hAmylin-R funct. EC50 [2]: 0.364 nM

B5: N^α1-[2-[2-[2-[[2-[2-[2-[[(4S)-4-carboxy-4-(19-carboxynonadecanoylamino)butanoyl]amino]ethoxy]ethoxy]acetyl]amino]ethoxy]ethoxy]acetyl]-[Glu14,Arg17,Pro21,Pro27 … (peptide)
peptide: KCNTATCATQRLAEFLRHSSPNFGAIPSSTNVGSNTY
modifications: C20 diacid-gGlu-2xOEG on the alpha amino group of the N-terminal residue; Cys2-Cys7 disulfide and C-terminal amide as in human amylin
notes: also called compound 19
- Ratio hCT/hAmylin funct. (hCTR EC50 against hAmylin-R EC50) [1]: 17.4
- hCTR funct. EC50 [1]: 5.32 nM
- hAmylin-R funct. EC50 [2]: 0.307 nM

Second part, the binder after the results:

- Ratio hCT/hAmylin funct. (hCTR EC50 against hAmylin-R EC50) [1]: 16.4
- hCTR funct. EC50 [1]: 3 nM
- hAmylin-R funct. EC50 [2]: 0.182 nM
B2: N^ε1-[(4S)-4-carboxy-4-[[(4S)-4-carboxy-4-(19-carboxynonadecanoylamino)butanoyl]amino]butanoyl]-[Asp14,Arg17,Pro21,Pro27,Asp35]-h-amylin (peptide)
peptide: K([γGlu-γGlu-C20 diacid])CNTATCATQRLADFLRHSSPNFGAIPSSTNVGSDTY-NH2
modifications: disulfide 2-7; N-terminus assumed
SMILES: CC[C@H](C)[C@H](NC(=O)[C@H](C)NC(=O)CNC(=O)[C@H](Cc1ccccc1)NC(=O)[C@H](CC(N)=O)NC(=O)[C@@H]1CCCN1C(=O)[C@H](CO)NC(=O)[C@H](CO)NC(=O)[C@H](Cc1c[nH]cn1)NC(=O)[C@H](CCCNC(=N)N)NC(=O)[C@H](CC(C)C)NC(=O)[C@H](Cc1ccccc1)NC(=O)[C@H](CC(=O)O)NC(=O)[C@H](C)NC(=O)[C@H](CC(C)C)NC(=O)[C@H](CCCNC(=N)N)NC(=O)[C@H](CCC(N)=O)NC(=O)[C@@H](NC(=O)[C@H](C)NC(=O)[C@@H]1CSSC[C@H](NC(=O)[C@@H](N)CCCCNC(=O)CC[C@H](NC(=O)CC[C@H](NC(=O)CCCCCCCCCCCCCCCCCCC(=O)O)C(=O)O)C(=O)O)C(=O)N[C@@H](CC(N)=O)C(=O)N[C@@H]([C@@H](C)O)C(=O)N[C@@H](C)C(=O)N[C@@H]([C@@H](C)O)C(=O)N1)[C@@H](C)O)C(=O)N1CCC[C@H]1C(=O)N[C@@H](CO)C(=O)N[C@@H](CO)C(=O)N[C@H](C(=O)N[C@@H](CC(N)=O)C(=O)N[C@H](C(=O)NCC(=O)N[C@@H](CO)C(=O)N[C@@H](CC(=O)O)C(=O)N[C@H](C(=O)N[C@@H](Cc1ccc(O)cc1)C(N)=O)[C@@H](C)O)C(C)C)[C@@H](C)O
notes: also called compound 2

- Ratio hCT/hAmylin funct. (hCTR EC50 against hAmylin-R EC50) [1]: 6.8
- hCTR funct. EC50 [1]: 1.28 nM
- hAmylin-R funct. EC50 [2]: 0.189 nM
B4: N{Alpha-1}-[(4S)-4-carboxy-4-(19-carboxynonadecanoylamino)butanoyl]-[Glu14,Arg17,Pro21,Pro27,Lys34]-h-amylin (peptide)
peptide: {C20 diacid-γGlu}-KCNTATCATQRLAEFLRHSSPNFGAIPSSTNVGKNTY-NH2
modifications: disulfide 2-7
SMILES: CC[C@H](C)[C@H](NC(=O)[C@H](C)NC(=O)CNC(=O)[C@H](Cc1ccccc1)NC(=O)[C@H](CC(N)=O)NC(=O)[C@@H]1CCCN1C(=O)[C@H](CO)NC(=O)[C@H](CO)NC(=O)[C@H](Cc1c[nH]cn1)NC(=O)[C@H](CCCNC(=N)N)NC(=O)[C@H](CC(C)C)NC(=O)[C@H](Cc1ccccc1)NC(=O)[C@H](CCC(=O)O)NC(=O)[C@H](C)NC(=O)[C@H](CC(C)C)NC(=O)[C@H](CCCNC(=N)N)NC(=O)[C@H](CCC(N)=O)NC(=O)[C@@H](NC(=O)[C@H](C)NC(=O)[C@@H]1CSSC[C@H](NC(=O)[C@H](CCCCN)NC(=O)CC[C@H](NC(=O)CCCCCCCCCCCCCCCCCCC(=O)O)C(=O)O)C(=O)N[C@@H](CC(N)=O)C(=O)N[C@@H]([C@@H](C)O)C(=O)N[C@@H](C)C(=O)N[C@@H]([C@@H](C)O)C(=O)N1)[C@@H](C)O)C(=O)N1CCC[C@H]1C(=O)N[C@@H](CO)C(=O)N[C@@H](CO)C(=O)N[C@H](C(=O)N[C@@H](CC(N)=O)C(=O)N[C@H](C(=O)NCC(=O)N[C@@H](CCCCN)C(=O)N[C@@H](CC(N)=O)C(=O)N[C@H](C(=O)N[C@@H](Cc1ccc(O)cc1)C(N)=O)[C@@H](C)O)C(C)C)[C@@H](C)O
notes: also called compound 36
